Measured values taken from paper PMC6889386.

Target: EGFR on A549-derived exosomes (A-Exo) (UniProt P00533)
Assay: flow cytometry
Settings: MSN-aptamer conjugates incubated with PKH67-labelled exosomes in cell medium or rat blood (37 C, 1-4 h, static or 100 rpm), buffer details not given

Row | Sequence | binding signal (% positive events) (amino-functionalized (terminus not stated), EDC/NHS-conjugated to MSN-COOH nanoparticle) | binding signal (% positive events) (carboxyl-functionalized (terminus not stated), EDC/NHS-conjugated to MSN-NH2 nanoparticle)
1 | TACCAGTGCGATGCTCAGTGCCGTTTCTTCTCTTTCGCTTTTTTTGCTTTTGAGCATGCTGACGCATTCGGTTGAC [anti-EGFR DNA aptamer on negatively charged MSN (MSN-AP-)] | 8.1 | 
2 | TACCAGTGCGATGCTCAGTGCCGTTTCTTCTCTTTCGCTTTTTTTGCTTTTGAGCATGCTGACGCATTCGGTTGAC [anti-EGFR DNA aptamer on positively charged MSN (MSN-AP)] |  | 26.6
